Consider 97 variants from the supplement of paper PMC10567573.

First the molecules themselves.
B1: UFD1L (parent)
chain: EAGGRFVAFSGEGQSLRKKGRKP
B2: MMP1 (parent)
chain: YTPDLPRADVDHAIEKAFQLWSNV
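Further: lentivirally expressed fusions sorted by FACS into six bins by GFP to DsRed ratio, PSI derived from sequencing read proportions per bin multiplied by bin number.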

The variants in the first data set derive from B1. The data set is described as follows: protein stability index of a GFP-peptide fusion (GPS, HEK-293T) (PSI 1-6); higher = more stable. Particulars: c terminus: native.
Turning to EAGGRFHAFSGEGQSLRKKGRKP, the protein stability index was 1.37.
Still for that read-out and setting: the value for EAGGRFNAFSGEGQSLRKKGRKP was 2.18; that for EAGGRFCAFSGEGQSLRKKGRKP was 2.03; that for EAGGRFDAFSGEGQSLRKKGRKP was 3.75.
With EDGGRFVAFSGEGQSLRKKGRKP, the protein stability index came to 3.92.
Same read-out and setting: with EIGGRFVAFSGEGQSLRKKGRKP the figure was 3.
The same measure, in the same setting: with ETGGRFVAFSGEGQSLRKKGRKP the figure was 1.64; with ENGGRFVAFSGEGQSLRKKGRKP, 1.23; with EPGGRFVAFSGEGQSLRKKGRKP, 2.55.
As to EHGGRFVAFSGEGQSLRKKGRKP, the protein stability index stood at 1.15.
On the same count and under the same terms, the value for ESGGRFVAFSGEGQSLRKKGRKP was 1.82; that for ERGGRFVAFSGEGQSLRKKGRKP was 1.1; that for EALGRFVAFSGEGQSLRKKGRKP was 3.08.
On to EACGRFVAFSGEGQSLRKKGRKP, for which the protein stability index amounted to 1.6.
In the case of EANGRFVAFSGEGQSLRKKGRKP, the protein stability index amounted to 1.63.
The same measure, in the same setting: with EAPGRFVAFSGEGQSLRKKGRKP the figure was 1.24; with EADGRFVAFSGEGQSLRKKGRKP, 1.88.
In the case of EAQGRFVAFSGEGQSLRKKGRKP, the protein stability index amounted to 2.16.
On the same count and under the same terms, with EATGRFVAFSGEGQSLRKKGRKP the figure was 2.14.
As for EAMGRFVAFSGEGQSLRKKGRKP, the protein stability index came out at 2.11.
As to EAGGRFVAFSGEGQSLRKKGRKN, the protein stability index stood at 2.62.
In the case of EAGGRFVAFSGEGQSLRKKGRKC, the protein stability index amounted to 3.15.
Still for that read-out and setting: with EAGGRFVAFSGEGQSLRKKGRKM the figure was 2.85.
Still for that read-out and setting: with EAGGRFVAFSGEGQSLRKKGRKK the figure was 4.87; with EAGGRFVAFSGEGQSLRKKGRKV, 4.09; with EAGGRFVAFSGEGQSLRKKGRKW, 5.5.
EAGGRFVAFSGEGQSLRKKGRKY: the protein stability index amounted to 3.01.
Regarding EAGGRFVAFSGEGQSLRKKGRKL, the protein stability index was 3.73.
On the same count and under the same terms, with EAGGRFVAFSGEGQSLRKKGRKI the figure was 3.95.
In the case of EAGGRFVAFQGEGQSLRKKGRKP, the protein stability index was found to be 3.48.
The same measure, in the same setting: with EAGGRFVAFIGEGQSLRKKGRKP the figure was 1.72; with EAGGRFVAFDGEGQSLRKKGRKP, 2.36; with EAGGRFVAFAGEGQSLRKKGRKP, 1.38.
Consider EAGGRFVAFPGEGQSLRKKGRKP, for which the protein stability index was determined as 2.83.
The same measure, in the same setting: with EAGGRFVFFSGEGQSLRKKGRKP the figure was 2.8; with EAGGRFVTFSGEGQSLRKKGRKP, 1.77.
With EAGGRFVNFSGEGQSLRKKGRKP, the protein stability index was 1.41.
Consider EAGGRFVHFSGEGQSLRKKGRKP, for which the protein stability index was determined as 1.34.
On the same count and under the same terms, with EAGGRFVLFSGEGQSLRKKGRKP the figure was 1.5; with EAGGRFVQFSGEGQSLRKKGRKP, 2.18; with EAGGRFVIFSGEGQSLRKKGRKP, 1.11.
On the same count and under the same terms, the value for EAGGFFVAFSGEGQSLRKKGRKP was 2.14; that for EAGGYFVAFSGEGQSLRKKGRKP was 1.48.
Turning to EAGGIFVAFSGEGQSLRKKGRKP, the protein stability index is 1.48.
The same measure, in the same setting: with EAGGTFVAFSGEGQSLRKKGRKP the figure was 3.2; with EAGGLFVAFSGEGQSLRKKGRKP, 2.46; with EAGGPFVAFSGEGQSLRKKGRKP, 3.69.
On the same count and under the same terms, the value for EAGGEFVAFSGEGQSLRKKGRKP was 3.18; that for EAGGNFVAFSGEGQSLRKKGRKP was 2.6.
Still for that read-out and setting: the value for EAGGRFVAFSGERQSLRKKGRKP was 1.35; that for EAGGRFVAFSGEQQSLRKKGRKP was 1.16; that for EAGGRFVAFSGEAQSLRKKGRKP was 2.22.
Regarding EAGGRFVAFSGEVQSLRKKGRKP, the protein stability index worked out at 2.38.
Same read-out and setting: with EAGGRFVAFSGEIQSLRKKGRKP the figure was 1.28; with EAGGRFVAFSGETQSLRKKGRKP, 1.23.
Same read-out and setting: with EAGGRFVAFSGENQSLRKKGRKP the figure was 1.55.
On the same count and under the same terms, the value for EAGGRFVAFSGTGQSLRKKGRKP was 3.41; that for EAGGRFVAFSGKGQSLRKKGRKP was 1.69.

Variants of B2 are the subject of the next data set. The data set is described as above. Conditions: c terminus: a fixed tail appended.
Take YTPDLPRADVDHAIEKAFQLWSFV: the protein stability index was determined as 2.29.
On the same count and under the same terms, the value for YTPDLPRADVDHAIEKAFQLWSSV was 2.28; that for YTPDLPRADVDHAIEKAFQLWSQV was 1.57.
The same measure, in the same setting: with YTPDLPRADVDHAIEKAFQLWSEV the figure was 2.49.
Same read-out and setting: with YTPDLPRADVDHAIEKAFQLWSHV the figure was 1.69; with YTPDLPRADVDHAIEKAFQLWSLV, 2.1; with YTPDLPRADVDHAIEKAFQLWSGV, 2.12.
For YTPDLPRADVDHAIEKAFQLWSRV, the protein stability index was 2.01.
For the variant YTPDLPRADVDHAIEKAFQLWSWV, the protein stability index was 1.97.
On to YTPDLPRADVDHAIEKAFQLWSVV, for which the protein stability index amounted to 2.23.
As to YTPDLPRADVDHAIEKAFQLWSYV, the protein stability index is 1.43.
Still for that read-out and setting: the value for YTPDLPRADVDHAIEKAFQLWSMV was 2.02; that for YTPDLPRADVDHAIEKAFQLWSIV was 2.05.
As for YTPDLPRADVDHAIEKAFQLWSAV, the protein stability index was determined as 2.05.
For YTPDLPRADVDHAIEKAFQLWSDV, the protein stability index was found to be 1.86.
Still for that read-out and setting: with YTPDLPRADVDHAIEKAFQLWSCV the figure was 1.29; with YTPDLPRADVDHAIEKAFQLWSKV, 2.28; with YTPDLPRADVDHAIEKAFQLWSTV, 2.07.
YTPDLPRADVDHAIEKAFQLWSNF: the protein stability index was found to be 1.83.
Regarding YTPDLPRADVDHAIEKAFQLWSNR, the protein stability index came to 1.53.
Consider YTPDLPRADVDHAIEKAFQLWSNH, for which the protein stability index worked out at 1.71.
Consider YTPDLPRADVDHAIEKAFQLWSNK, for which the protein stability index is 2.5.
Still for that read-out and setting: with YTPDLPRADVDHAIEKAFQLWSNG the figure was 2.37.
In the case of YTPDLPRADVDHAIEKAFQLWSNM, the protein stability index was 2.29.
On the same count and under the same terms, with YTPDLPRADVDHAIEKAFQLWSNW the figure was 2.39; with YTPDLPRADVDHAIEKAFQLWSNS, 1.66.
The same measure, in the same setting: with YTPDLPRADVDHAIEKAFQLWSNT the figure was 2.29; with YTPDLPRADVDHAIEKAFQLWSNA, 2.06.
On the same count and under the same terms, with YTPDLPRADVDHAIEKAFQLWSNP the figure was 2.43.
With YTPDLPRADVDHAIEKAFQLWSND, the protein stability index is 2.02.
For the variant YTPDLPRADVDHAIEKAFQLWSNY, the protein stability index was found to be 2.63.
The same measure, in the same setting: the value for YTPDLPRADVDHAIEKAFQLWSNN was 1.94.
On the same count and under the same terms, with YTPDLPRADVDHAIEKAFQLWSNE the figure was 2.16; with YTPDLPRADVDHAIEKAFQLWSNQ, 2.14; with YTPDLPRADVDHAIEKAFQLWSNI, 1.79.
As to YTPDLPRADVDHAIEKAFQLWSNL, the protein stability index turned out to be 1.65.
Still for that read-out and setting: with YTPDLPRADVDHAIEKAFQLWSNC the figure was 1.87.
Take YTPDLPRADVDHAIEKAFQLWWNV: the protein stability index came out at 1.91.
As for YTPDLPRADVDHAIEKAFQLWYNV, the protein stability index was 1.67.
